Measured values reported in patent US20190010233A1 (JIANGSU HYAMAB PHARMACEUTICAL, published 2019).
Where a chain is given by its changes, count along the chain named.

B1: chimeric anti-PD-L1 antibody 73D3G2 (antibody, V domains shown)
VH: EVQLVESGGGLVQPGGSLRLSCAASGFTFNTYWMNWVRQAPGRGLEWVANIKQDGGEKYYVDSVKGRFTISRDNAKNSLYLQMNSLRAEDTAMYYCARDGRSWYPDAFDIWGQGTVVTVSS
VL: DIQMTQSPSTLSASVGDRVTITCRASQSISTWLAWYQQKLGKAPKLLIYEVSILESGVPSRFSGSGSGTEFTLTISSLQPDDFATYYCQQYHSFSSFGGGTRVEIK
notes: Purified from hybridoma of Harbour H2L2 mice: human variable regions, rat constant regions
B2: chimeric anti-PD-L1 antibody 192D9E7 (antibody, V domains shown)
VH: EVQLVESGGGLVQPGGSLRLSCAASGFTFSSYWMSWVRQAPGKGLEWVADIKQDGSEKYYVDSVKGRFTISRDNAKNSLYLQMNSLRAEDTAVYYCTRDKPHWGGVMDAWGQGTSVTVSS
VL: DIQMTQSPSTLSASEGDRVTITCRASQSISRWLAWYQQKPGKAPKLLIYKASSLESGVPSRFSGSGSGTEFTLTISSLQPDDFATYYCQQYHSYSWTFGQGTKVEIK
notes: as for B1
B3: chimeric anti-PD-L1 antibody 105C5D7 (antibody, V domains shown)
VH: EVQLVESGGGLVQPGGSLRLSCAASGFTFSSYWMSWVRQAPGKGLEWVANIKQDGNEKYYVDSVKGRFTISRDNAKNSLYLQMNSLRAEDTAVYYCARNIKWGDAFDIWGQGTMVTVSS
VL: DIQMTQSPSSLSASVGDRVTITCRASQSISSYLNWYQQKPGKAPKLLIYAASSLQSGVPSRFSGSGSGTDFTLTISSLQPEDFAIYSCQQSYSIPLTFGGGTKVEIK
notes: as for B1
B4: chimeric anti-PD-L1 antibody 127D2F3 (antibody, V domains shown)
VH: EVQLVESGGGLVQPGGSLRLSCVASGFTFSSYWMSWVRQAPGKGLEWVANIKQDGSEKYYVDSVKGRLTISRDNAKNSLYLQMKSLRAEDTAVYYCARDPIYSSYFDYWGQGILVTVSS
VL: B3 VL with S31N, I85A, S87Y, S93G, L96F, G100P, E105D
notes: as for B1
B5: chimeric anti-PD-L1 antibody 78A11F6 (antibody, V domains shown)
VH: EVQLVESGGGLVQPGGSLRLSCAASGITFSSYWMSWVRQTPGKGLEWVANIKQDGSEKYYVKSVKGRFTISRDNAKNSLYLQMNSLRAEDTAVYYCVRDRAVPGTGAFDIWGQGTMVIVSS
VL: DIQMTQSPSTLSASVGDRVTITCRASQSISNWLAWYQQKPGKAPKLLIYKASSLESGVPSRFSGSGSGTEFTLTISSLQPDDFATYYCQQYDSSLFTFGQGTKLEIK
notes: as for B1
B6: chimeric anti-PD-L1 antibody 73G11B3 (antibody, V domains shown)
VH: B5 VH with A23V, A24V, I27F, K62D, F68L, F108L, I118T
VL: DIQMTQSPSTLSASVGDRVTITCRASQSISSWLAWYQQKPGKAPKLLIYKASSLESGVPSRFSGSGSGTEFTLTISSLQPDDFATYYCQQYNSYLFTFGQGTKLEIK
notes: as for B1

Key:
[1] = target: T1, full length human PD-L1 on cells (human, UniProt Q9NZQ7 19-290); assay: FACS CHO-K1-hPD-L1, 33.33 nM mAb
T1 construct: Also used as the target of the cell-based functional assays (transfected stimulator cells; PD-L1 of the cells in the mixed lymphocyte reaction); also called CHO-K1-hPD-L1; CHOK1-hPD-L1

[2] = target: T1, full length human PD-L1 on cells; assay: FACS CHO-K1-hPD-L1, 3.70 nM mAb
Description: Other CHO-K1 were stably transfected with a pIRES plasmid containing the nucleic acid sequence encoding full length cyno PD-L1 to generate CHO-K1 cells stably expressing cyno PD-L1 (herein referred to as CHO-K1-cPD-L1 cells). […] The culture media was aspirated, and the cells were washed twice with HBSS (Hanks Balanced Salt Solution, Invitrogen). The cells were treated with enzyme-free cell dissociation solution (Versene solution, Invitrogen) and collected. The cells were then washed twice with HBSS, cell counts were determined, and cells were resuspended with HBSS at 2×10⁶ cells/mL. Goat serum was added to the cell suspension to a final concentration of 1%, and the cells were blocked for 30 minutes on ice and then washed twice with HBSS. The cells were collected after centrifugation and resuspended in FACS buffer (HBSS+1% BSA, v/v) at 2×10⁶ cells/mL. 100 μL of the cell suspension were then added to each well of 96-well plate. 100 μL of purified anti-PD-L1 antibodies from Example 2 were added to each well of the 96-well plate and incubated for 2 hours on ice. […] The samples were washed three times with FACS buffer, and 100 μL fixation buffer (4% paraformaldehyde v/v) were added to each well and incubated for 10 minutes. The cells were then washed twice with FACS buffer and resuspended in 100 μL FACS buffer. The mean fluorescence intensity (MFI) was determined using FACS Calibur (BD), and the results are shown in FIGS. 7-8 and in Tables 10-11.

[3] = target: T2, human PD-L1^ECD-hFc protein (human, UniProt Q9NZQ7 19-239, biotinylated in the PD-1 binding ELISA (Table 3) and in the Octet assay (Table 12)); assay: ELISA, 0.041 nM mAb
T2 construct: The plain and the biotinylated protein are kept as one molecule; also called PD-L1-hFc; Immunogen A; not shown: human IgG Fc fragment (hFc)
Description: (§1) 100 μL of the diluted recombinant proteins were added to each well of 96-well plate. The plates were sealed with plastic film and incubated at 4° C. overnight. The plates were washed twice with wash buffer (PBS+0.01% (v/v) Tween20), and incubated with blocking buffer (PBS+0.01% (v/v) Tween20+1% (w/w) BSA) at room temperature for 2 hours. The blocking buffer was aspirated away, and 100 μL of purified anti-PD-L1 antibodies were added to each well and incubated for 2 hours at 37° C. The plates were washed three times with wash buffer (PBS+0.01% (v/v) Tween20). HRP-conjugated secondary antibody (Sigma) was added to each well and incubated for 2 hours at 37° C. After the plates were washed three times with wash buffer, 100 μL TMB substrate were added to each well, and the plates were incubated for 30 minutes at room temperature. 100 μL stop solution (0.1N HCl) was added to each well to stop the reaction.

[4] = target: T3, cyno PD-L1^ECD-hFc protein (cyno, UniProt G7PSE7 19-239); assay: ELISA, 0.041 nM mAb
T3 construct: also called Cyno Monkey PD-L1^ECD-hFc
Description: as §1

[5] = target: T2, human PD-L1^ECD-hFc protein; assay: ELISA receptor-ligand blocking assay: PD-L1^ECD-hFc coated on the plate, antibody titrated, blocked ligand biotinylated PD-1^ECD, HRP-streptavidin, inhibition rate (%)
Description: (§2) Purified PD-L1^ECD-hFc (Example 2) was diluted with PBS to a final concentration of 1.0 μg/mL, and 100 μL diluted PD-L1^ECD-hFc were added to each well of a 96-well plate that was then sealed with plastic film and incubated at 4° C. overnight. The plate was washed twice with wash buffer (PBS+0.01% (v/v) Tween 20) and incubated with blocking buffer (PBS+[…]) at room temperature for 2 hours. The blocking buffer was aspirated, and 50 μL purified anti-PD-L1 antibodies from Example 2 were added to each well of 96-well plate. […] The plate was washed three times with wash buffer (PBS+0.01% (v/v) Tween 20). 100 μL HRP-conjugated streptavidin (Sigma) were then added to each well and incubated at 37° C. for 2 hours. The plate was then washed three times with wash buffer, and 100 μL TMB substrate were added to each well. After 30 minutes of incubation at room temperature, the reaction was stopped by adding 100 μL stop solution (0.1N HCl).

[6] = target: T3, cyno PD-L1^ECD-hFc protein; assay: ELISA, 10 nM mAb
Description: as §1

[7] = target: T1, full length human PD-L1 on cells; assay: cell-based or functional assay
[8] = target: T2, human PD-L1^ECD-hFc protein; assay: ELISA receptor-ligand blocking assay: PD-L1^ECD-hFc coated on the plate, antibody titrated, blocked ligand biotinylated B7.1^ECD, HRP-streptavidin, inhibition rate (%)
Description: as §2

T2 sequence (Q9NZQ7 19-239): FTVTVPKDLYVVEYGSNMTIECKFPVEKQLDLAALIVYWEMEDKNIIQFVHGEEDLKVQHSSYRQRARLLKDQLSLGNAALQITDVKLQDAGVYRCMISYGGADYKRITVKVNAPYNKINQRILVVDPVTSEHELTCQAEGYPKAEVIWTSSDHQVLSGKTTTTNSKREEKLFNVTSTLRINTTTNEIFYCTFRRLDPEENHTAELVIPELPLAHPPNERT
T1 sequence (Q9NZQ7 19-290 limits assumed): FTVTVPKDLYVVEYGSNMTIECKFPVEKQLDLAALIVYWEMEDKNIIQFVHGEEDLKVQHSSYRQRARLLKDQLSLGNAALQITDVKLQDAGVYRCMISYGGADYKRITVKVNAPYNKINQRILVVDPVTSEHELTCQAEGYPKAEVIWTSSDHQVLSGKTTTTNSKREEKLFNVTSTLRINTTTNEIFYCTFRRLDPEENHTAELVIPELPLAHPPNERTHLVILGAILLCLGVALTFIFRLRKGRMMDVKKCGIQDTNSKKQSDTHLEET
T3 sequence (G7PSE7 entry or part of it limits assumed): as the sequence (Q9NZQ7 19-239) above, with A33T, A34S, S62N, R68Q, Q82R, F173L, T185A, T192I, H215L counted along it

Binder	Mean fluorescence intensity [1]	Mean fluorescence intensity [2]	OD450 nm [3]	OD450 nm [4]	IC50 (read off the curve) [5]	OD450 nm [6]	IL-2 (pg/mL), MLR donor1, 0.001 µg/mL mAb [7]	IL-2 (pg/mL), MLR donor1, 0.01 µg/mL mAb [7]	IL-2 (pg/mL), MLR donor1, 0.1 µg/mL mAb [7]	IL-2 (pg/mL), MLR donor1, 1 µg/mL mAb [7]	IL-2 (pg/mL), MLR donor1, 10 µg/mL mAb [7]	IC50 (read off the curve) [8]
B1	116	113	0.36	0.36	~0.5 nM	2.09						
B2							211 pg/mL	371 pg/mL	473 pg/mL	461 pg/mL	488 pg/mL	
B3	194	203	0.34	0.34		1.56						
B4					~0.3 nM		226 pg/mL	274 pg/mL	429 pg/mL	497 pg/mL	440 pg/mL	~0.4 nM
B5	225	199	0.37	0.45		2.07						
B6					~0.4 nM		216 pg/mL	365 pg/mL	453 pg/mL	426 pg/mL	477 pg/mL	~0.5 nM
